Assay results: patent publication US20080226632 (published 2008)

T1: HB-EGF (human, UniProt Q99075)
T1 chain: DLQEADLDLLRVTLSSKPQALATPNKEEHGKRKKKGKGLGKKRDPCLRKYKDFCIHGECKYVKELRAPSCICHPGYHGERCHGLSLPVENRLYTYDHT

B1: PAR80 (antibody, V domains shown)
VH: EVQLQQSGAELVRSGASVKLSCTASGFNIKDYYIHWVKQRPEQGLEWIGCIDPENGDTEYAPNFQGRATMTADTSSNTAYLQLSSLTSEDTAVYYCYGGTITFAYWGQGTLVTVSA
VL: QAVVTQESALTTSPGETVTLTCRSSTGAVTTSNSANWVQEKPDHLFTGLIGGTINRVPGVPARFSGSLIGDKAALTITGAQTEDEAIYFCALWYSNHWVFGGGTKLTVLG
B2: PAR34 (antibody, V domains shown)
VH: EIQLQQSGPELVKPGASVKVSCKASGYAFTNYNMYWVKQSHGKSLEWIGYIDPYYGDPGYSQKFKGKATLTVDKSSSTAYMHLNSLTSEDSAVYYCARRGNFPYYFDYWGQGTTLTVSS
VL: DIKMTQSPSSMYASLGERVTITCKASQDINSYLSWFQQKPGKSPKTLIYRANRLVDGVPSRFSGSGSGQDYSLTISSLEYEDMGIYYCLQYDEFPYTFGGGTKLEIK

Assays:
[1] = biological target: EGF (human, UniProt P01133)
[2] = biological target: T1, HB-EGF

Chain of EGF (P01133 971-1023): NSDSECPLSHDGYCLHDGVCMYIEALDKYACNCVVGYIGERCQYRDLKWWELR

| binding result [1] | binding result [2] | Binder |
| --- | --- | --- |
| no binding | no binding | B1 |
| no binding | no binding | B2 |
